Reference: patent US20060228349A1 (published 2006)

What was measured:
[1] = target: T1, Aβ-derived diffusible ligands (synthetic ADDLs), soluble oligomers of amyloid β1-42; experiment: solution equilibrium titration, free IgG by ELISA, GraFit; SE 0.09
T1 construct: Oligomeric preparation of synthetic Aβ1-42 in DMSO/F12 (monomer, trimer, tetramer, 12-24mer on SDS-PAGE); number of copies not fixed; also called soluble Aβ oligomers

[2] = target: T2, Biotinylated ADDL preparations (bADDLs) (N-terminal biotin); experiment: BIACORE, bADDL as antigen; column IgG1#1 (row shifted one column to the left)
T2 construct: Oligomer, number of copies not fixed; also called biotinylated ADDL antigen; high molecular weight 10% bADDL

Aβ1-20 peptide [3] = target: T3, Aβ1-20 peptide; experiment: solution equilibrium titration, free IgG by ELISA, GraFit; SE 24.41
T3 peptide: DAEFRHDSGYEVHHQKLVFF

Aβ12-28 peptide = target: T4, Aβ12-28 peptide; experiment: competition dot blot with peptides
T4 peptide: VHHQKLVFFAEDVGSNK

Aβ1-12 peptide = target: T5, Aβ1-12 peptide; experiment: competition dot blot with peptides
T5 peptide: DAEFRHDSGYEV

[4] = target: T6, amyloid beta (1-40) peptide; experiment: solution equilibrium titration, free IgG by ELISA, GraFit; SE 5.05
T6 construct: Used as monomer-like control; also called Aβ1-40; monomer preparation

biotin-Aβ1-20 = target: T7, biotin-Aβ1-20 (biotin (position not given)); experiment: BIACORE, biotin-Aβ1-20 as antigen; column IgG1#1
T7 peptide: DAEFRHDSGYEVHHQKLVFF

[5] = target: T8, ADDL fibril preparation (Aβ1-42 fibrils); experiment: solution equilibrium titration, free IgG by ELISA, GraFit; SE 0.47
T8 construct: Fibrillar assembly; number of copies not fixed

Aβ1-20 peptide [6] = target: T3, Aβ1-20 peptide; experiment: solution equilibrium titration, free IgG by ELISA, GraFit; SE 4.39
[7] = target: T1, Aβ-derived diffusible ligands …; experiment: solution equilibrium titration, free IgG by ELISA, GraFit; SE 1.63
[8] = target: T8, ADDL fibril preparation (Aβ1-42 fibrils); experiment: solution equilibrium titration, free IgG by ELISA, GraFit; SE 5.78
[9] = target: T6, amyloid beta (1-40) peptide; experiment: solution equilibrium titration, free IgG by ELISA, GraFit; SE 6.21

B1: murine anti-ADDL monoclonal antibody 20C2 (antibody, mouse IgG1, V domains shown)
VH: QVTLKESGPGILKPSQTLSLTCSLSGFSLSTSGMGVGWFRQPSGKGLEWLAHIWWDDDKSYNPSLKSRLTISKYTSRNQVFLTITSVDTADTATYYCARRQLGLRSIDAMDYWGQGTSVTVSS
VL: DVLMTQTPLSLPVSLGDQASISCRSSQSILHSNGNTYLEWYLQKPGQSPKLLIYKVSNRFSGVPDRFSGSGSGTDFTLKISRVEAEDLGVYYCFQGSLVPLTFGAGTKLELK
notes: also called Mouse-20C2
**Q.** With B1 as the binder, how does the Kd [1] read?
**A.** The Kd was 0.92 nM.

**Q.** And the Kd [2]?
**A.** The Kd was 4.1 nM.

**Q.** And the Kd (Aβ1-20 peptide [3])?
**A.** The Kd was 71.3 nM.

**Q.** Does B1 bind (Aβ12-28 peptide)?
**A.** Result: no binding (tested: 200 pmol peptide in 200 µL)

**Q.** Does B1 bind (Aβ1-12 peptide)?
**A.** Result: no binding (tested: 200 pmol peptide in 200 µL)

**Q.** What about the Kd [4] of the same binder?
**A.** Its Kd is 30.5 nM.

**Q.** And the Kd (biotin-Aβ1-20)?
**A.** The Kd was 3.4 nM.

**Q.** And the Kd [5]?
**A.** Its Kd is 3.62 nM.

B2: murine anti-ADDL monoclonal antibody 5F10 (antibody, V domains shown)
VH: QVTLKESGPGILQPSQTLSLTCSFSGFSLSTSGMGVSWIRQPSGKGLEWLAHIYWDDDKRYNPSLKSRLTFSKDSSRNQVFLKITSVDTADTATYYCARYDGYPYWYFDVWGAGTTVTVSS
VL: VVLMTQTPLSLPVSLGDQASISCRSSQSLVHSNGNTYLHWYLQKPGQSPKLLIYKVSNRFSGVPDRFSGSGSGTDFTLKISRVEAEDLGVYFCFQSTHVPLTFGAGTKLELK
notes: also called SF10
**Q.** Which results are given for B2?
**A.** Kd (Aβ1-20 peptide [6]): 6.1 nM; Kd [7]: 11.9 nM; Kd [8]: 28.9 nM; Kd [9]: 23.5 nM
